Data published in patent publication US20090099029.

T1: Bovine, dephosphorylated, Myelin Basic Protein (MBP), P02687
T1 chain: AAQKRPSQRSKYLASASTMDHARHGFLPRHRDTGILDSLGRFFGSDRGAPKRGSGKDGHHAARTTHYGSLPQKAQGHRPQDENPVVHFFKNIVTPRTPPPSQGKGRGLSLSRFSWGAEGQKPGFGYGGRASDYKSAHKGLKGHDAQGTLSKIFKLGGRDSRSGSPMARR

B1: PLK3 (protein)
chain: SGRTYLKGRLLGKGGFARCYEATDTETGSAYAVKVIPQSRVAKPHQREKILNEIELHRDLQHRHIVRFSHHFEDADNIYIFLELCSRKSLAHIWKARHTLLEPEVRYYLRQILSGLKYLHQRGILHRDLKLGNFFITENMELKVGDFGLAARLEPPEQRKKTICGTPNYVAPEVLLRQGHGPEADVWSLGCVMYTLLCGSPPFETADLKETYRCIKQVHYTLPASLSLPARQLLAAILRASPRDRPSIDQILRHDFFTKGYTPDRLPISSCVTVPDLTPPNPA
B2: EPHB2 (protein)
chain: CNRRGFERADSEYTDKLQHYTSGHMTPGMKIYIDPFTYEDPNEAVREFAKEIDISCVKIEQVIGAGEFGEVCSGHLKLPGKREIFVAIKTLKSGYTEKQRRDFLSEASIMGQFDHPNVIHLEGVVTKSTPVMIITEFMENGSLDSFLRQNDGQFTVIQLVGMLRGIAAGMKYLADMNYVHRDLAARNILVNSNLVCKVSDFGLSRFLEDDTSDPTYTSALGGKIPIRWTAPEAIQYRKFTSASDVWSYGIVMWEVMSYGERPYWDMTNQDVINAIEQDYRLPPPMDCPSALHQLMLDCWQKDRNHRPKFGQIVNTLDKMIRNPNSLKAMAPLSSGINLPLLDRTIPDYTSFNTVDEWLEAIKMGQYKESFANAGFTSFDVVSQMMMEDILRVGVTLAGHQKKILNSIQVMRAQMNQIQSVEV
B3: PRKCE (protein)
chain: MVVFNGLLKIKICEAVSLKPTAWSLRHAVGPRPQTFLLDPYIALNVDDSRIGQTATKQKTNSPAWHDEFVTDVCNGRKIELAVFHDAPIGYDDFVANCTIQFEELLQNGSRHFEDWIDLEPEGRVYVIIDLSGSSGEAPKDNEERVFRERMRPRKRQGAVRRRVHQVNGHKFMATYLRQPTYCSHCRDFIWGVIGKQGYQCQVCTCVVHKRCHELIITKCAGLKKQETPDQVGSQRFSVNMPHKFGIHNYKVPTFCDHCGSLLWGLLRQGLQCKVCKMNVHRRCETNVAPNCGVDARGIAKVLADLGVTPDKITNSGQRRKKLIAGAESPQPASGSSPSEEDRSKSAPTSPCDQEIKELENNIRKALSFDNRGEEHRAASSPDGQLMSPGENGEVRQGQAKRLGLDEFNFIKVLGKGSFGKVMLAELKGKDEVYAVKVLKKDVILQDDDVDCTMTEKRILALARKHPYLTQLYCCFQTKDRLFFVMEYVNGGDLMFQIQRSRKFDEPRSRFYAAEVTSALMFLHQHGVIYRDLKLDNILLDAEGHCKLADFGMCKEGILNGVTTTTFCGTPDYIAPEILQELEYGPSVDWWALGVLMYEMMAGQPPFEADNEDDLFESILHDDVLYPVWLSKEAVSILKAFMTKNPHKRLGCVASQNGEDAIKQHPFFKEIDWVLLEQKKIKPPFKPRIKTKRDVNNFDQDFTREEPVLTLVDEAIVKQINQEEFKGFSYFGEDLMP
B4: PRKCI (protein)
chain: MPTQRDSSTMSHTVAGGGSGDHSHQVRVKAYYRGDIMITHFEPSISFEGLCNEVRDMCSFDNEQLFTMKWIDEEGDPCTVSSQLELEEAFRLYELNKDSELLIHVFPCVPERPGMPCPGEDKSIYRRGARRWRKLYCANGHTFQAKRFNRRAHCAICTDRIWGLGRQGYKCINCKLLVHKKCHKLVTIECGRHSLPQEPVMPMDQSSMHSDHAQTVIPYNPSSHESLDQVGEEKEAMNTRESGKASSSLGLQDFDLLRVIGRGSYAKVLLVRLKKTDRIYAMKVVKKELVNDDEDIDWVQTEKHVFEQASNHPFLVGLHSCFQTESRLFFVIEYVNGGDLMFHMQRQRKLPEEHARFYSAEISLALNYLHERGIIYRDLKLDNVLLDSEGHIKLTDYGMCKEGLRPGDTTSTFCGTPNYIAPEILRGEDYGFSVDWWALGVLMFEMMAGRSPFDIVGSSDNPDQNTEDYLFQVILEKQIRIPRSLSVKAASVLKSFLNKDPKERLGCHPQTGFADIQGHPFFRNVDWDMMEQKQVVPPFKPNISGEFGLDNFDSQFTNEPVQLTPDDDDIVRKIDQSEFEGFEYINPLLMSAEECV
B5: PRKCQ (protein)
chain: MSPFLRIGLSNFDCGSCQSCQGEAVNPYCAVLVKEYVESENGQMYIQKKPTMYPPWDSTFDAHINKGRVMQIIVKGKNVDLISETTVELYSLAERCRKNNGKTEIWLELKPQGRMLMNARYFLEMSDTKDMNEFETEGFFALHQRRGAIKQAKVHHVKCHEFTATFFPQPTFCSVCHEFVWGLNKQGYQCRQCNAAIHKKCIDKVIAKCTGSAINSRETMFHKERFKIDMPHRFKVYNYKSPTFCEHCGTLLWGLARQGLKCDACGMNVHHRCQTKVANLCGINQKLMAEALAMIESTQQARCLRDTEQIFREGPVEIGLPCSIKNEARPPCLPTPGKREPQGISWESPLDEVDKMCHLPEPELNKERPSLQIKLKIEDFILHKMLGKGSFGKVFLAEFKKTNQFFAIKALKKDVVLMDDDVECTMVEKRVLSLAWEHPFLTHMFCTFQTKENLFFVMEYLNGGDLMYHIQSCHKFDLSRATFYAAEIILGLQFLHSKGIVYRDLKLDNILLDKDGHIKIADFGMCKENMLGDAKTNTFCGTPDYIAPEILLGQKYNHSVDWWSFGVLLYEMLIGQSPFHGQDEEELFHSIRMDNPFYPRWLEKEAKDLLVKLFVREPEKRLGVRGDIRQHPLFREINWEELERKEIDPPFRPKVKSPFDCSNFDKEFLNEKPRLSFADRALINSMDQNMFRNFSFMNPGMERLIS
B6: PRKCZ (protein)
chain: MPSRTGPKMEGSGGRVRLKAHYGGDIFITSVDAATTFEELCEEVRDMCRLHQQHPLTLKWVDSEGDPCTVSSQMELEEAFRLARQCRDEGLIIHVFPSTPEQPGLPCPGEDKSIYRRGARRWRKLYRANGHLFQAKRFNRRAYCGQCSERIWGLARQGYRCINCKLLVHKRCHGLVPLTCRKHMDSVMPSQEPPVDDKNEDADLPSEETDGIAYISSSRKHDSIKDDSEDLKPVIDGMDGIKISQGLGLQDFDLIRVIGRGSYAKVLLVRLKKNDQIYAMKVVKKELVHDDEDIDWVQTEKHVFEQASSNPFLVGLHSCFQTTSRLFLVIEYVNGGDLMFHMQRQRKLPEEHARFYAAEICIALNFLHERGIIYRDLKLDNVLLDADGHIKLTDYGMCKEGLGPGDTTSTFCGTPNYIAPEILRGEEYGFSVDWWALGVLMFEMMAGRSPFDIITDNPDMNTEDYLFQVILEKPIRIPRFLSVKASHVLKGFLNKDPKERLGCRPQTGFSDIKSHAFFRSIDWDLLEKKQALPPFQPQITDDYGLDNFDTQFTSEPVQLTPDDEDAIKRIDQSEFEGFEYINPLLLSTEESV
B7: PRKD1(PKD) (protein)
chain: MSAPPVLRPPSPLLPVAAAAAAAAAALVPGSGPGPAPFLAPVAAPVGGISFHLQIGLSREPVLLLQDSSGDYSLAHVREMACSIVDQKFPECGFYGMYDKILLFRHDPTSENILQLVKAASDIQEGDLIEVVLSASATFEDFQIRPHALFVHSYRAPAFCDHCGEMLWGLVRQGLKCEGCGLNYHKRCAFKIPNNCSGVRRRRLSNVSLTGVSTIRTSSAELSTSAPDEPLLQKSPSESFIGREKRSNSQSYIGRPIHLDKILMSKVKVPHTFVIHSYTRPTVCQYCKKLLKGLFRQGLQCKDCRFNCHKRCAPKVPNNCLGEVTINGDLLSPGAESDVVMEEGSDDNDSERNSGLMDDMEEAMVQDAEMAMAECQNDSGEMQDPDPDHEDANRTISPSTSNNIPLMRVVQSVKHTKRKSSTVMKEGWMVHYTSKDTLRKRHYWRLDSKCITLFQNDTGSRYYKEIPLSEILSLEPVKTSALIPNGANPHCFEITTANVVYYVGENVVNPSSPSPNNSVLTSGVGADVARMWEIAIQHALMPVIPKGSSVGTGTNLHRDISVSISVSNCQIQENVDISTVYQIFPDEVLGSGQFGIVYGGKHRKTGRDVAIKIIDKLRFPTKQESQLRNEVAILQNLHHPGVVNLECMFETPERVFVVMEKLHGDMLEMILSSEKGRLPEHITKFLITQILVALRHLHFKNIVHCDLKPENVLLASADPFPQVKLCDFGFARIIGEKSFRRSVVGTPAYLAPEVLRNKGYNRSLDMWSVGVIIYVSLSGTFPFNEDEDIHDQIQNAAFMYPPNPWKEISHEAIDLINNLLQVKMRKRYSVDKTLSHPWLQDYQTWLDLRELECKIGERYITHESDDLRWEKYAGEQGLQYPTHLINPSASHSDTPETEETEMKALGERVSIL

Biological target: T1, Bovine, dephosphorylated, Myelin Basic …

Row | Protein | MBP Kinase Activity
1 | B1 | Negative
2 | B2 | Strong
3 | B3 | Strong
4 | B4 | Strong
5 | B5 | Strong
6 | B6 | Strong
7 | B7 | Weak
